Results published in the RNAGym collection of RNA variant scans (doi:10.1073/pnas.2313332121).

B1: TPR t1 (parent)
chain: GACCAAUCUGCCCUCAGAGCUCGAGAACAUCUUCGGAUGCAGAGGAGGCAGGCUUCGGUGGCGCGAUAGCGCCAACGUCCUCAACCUCCAAUGCAUCCCACCACAUGAUGAUGCCUGAAGAGCCUUGGUUUUUUG

Variants of: B1
Assay: polymerase ribozyme fitness, log enrichment relative to wild type (log ratio); higher = more active; in vitro selection for triplet polymerase activity
Procedure, shortened: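 Each subunit of a heterodimeric triplet polymerase ribozyme was mutagenized into a library by PCR, transcribed, and subjected to one round of in vitro selection, run in triplicate. Libraries were annealed with a biotinylated primer, the partner subunit and triplets, incubated frozen at −7 °C, and extended constructs were gel-excised, captured on streptavidin beads and recovered by RT-PCR. Input and output libraries were sequenced on Illumina, keeping genotypes with ≥10 input reads and ≥1 read per output. Fitness is log base 2 of genotype enrichment divided by wild-type enrichment, from inverse-variance-weighted replicate averages.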

Variant | polymerase ribozyme fitness (log ratio)
U30A C88U | -5.1
U9A C13U C64G | -5.17
G10A A74G A90U G107U C115U | -7.83
A26G C72G A100C C115U G128A | -5.88
G44A A90U | -1.45
C73A C115G | -2.61
G10A C12U U14C C56G G63C G117U U129A | -3.92
A5C C62U C115A | -1.14
U7C G17A | -1.12
C22U C34U C73U A83C C124G | -6.07
C3U G44U C73G U125A | -2.29
C11A G52U | -2.14
G25C G71A C73A C89A G110A | -6.79
A119G U131A | 0.889
U9G G19U G44A G58C | -3.46
G35A C89A | -5.84
G35U U54C C64G C76G C85U G113U | -7.14
G77C C86U A90C U125A | -1.83
C76G G113A G122C G135U | -2.49
C88U C102U | -1.5
G39U C89U A118U | -0.539
G42U U96C | -1.58
G42U G77C C80U A84U C97U | -3.47
A6G C62U G110C | -4.63

Variant | polymerase ribozyme fitness (log ratio)
A105C U130C | -1.55
A5G A84U U112G | -0.141
C8A G44A A105G | -3.51
C13U G71C A95C | -1.52
U7G G69A | -2.34
A5C U7C G69U C85A U92C | -3.85
U9A U14A A75U C124U G127C | -0.619
C62A G93A | -2.07
A29G A50U C73G | -1.85
G10C G42C C123A G128A | -2.91
A90G U112G U116C | -0.0889
G19U C76U | -4.25
C49U C56A | -1
G10U G122A | 0.462
U38G C56U A91U U125G U126G G127U | -3.43
C12U C86A C98U | -0.708
A2C C101A | -2.7
G107A G117A | -5.11
C73U C124A | 2.11
C13U A24G G36U C53U C79G C98U C99A | -7.05
G77C A121U | 0.189
U38G | -0.73
C72U U109G | -4.62
U9A A16G A18U A43G C70A C72U | -3.21

Variant | polymerase ribozyme fitness (log ratio)
A27U C82G C102A C123A | -4.66
U9A A16U A43U A91G | -0.987
C70U A121G | -0.18
G57A C82A C102A | -4.09
C53U A91C G120C U133C G135U | -0.968
G45U | -1.31
C72U A103U U125G | -6.8
A26U C49A G60A G110A | -4.81
G77A U92C G117C | -5.8
C20G G47C | -5.65
A41G C79G | -4.32
C49G U78C A95C | -2.13
C49U G61A | -0.0564
U32C U116A | -3.4
C12A A50U A74C A84G U112A | -4.85
C11G C64U C98G U106C | -6.08
A16U U81A | -2.6
G69C A91U | -3.08
G52A C73G | -2.63
G61U U112A | 1.27
A111C C114A | -2.98
C70A C72U U92G G120U | -6
U55A C124G | 1.88
C20U C56G | -1.53

Variant | polymerase ribozyme fitness (log ratio)
C22U G60A C123A | -4.89
A46C G69A | -2.87
G47A C72A C82G C88A | -2.25
C124A U133G | -0.27
G48A C72G G77A U78A C79A G120A U130A | -2.79
G120C G128U | -0.74
U81A U109A | -5.72
U54C G61C A75U | 0.0964
C8G G35U | -3.78
A6G C12U A50U U54G A100C | -6.08
C8U G47C G52A G113A | -3.3
U21A A24G | -1.64
C13U C22U C82A C94A A121U U130A | -3.54
A2U C8A A74U A95U G110A G127U U130C | -3.91
G42A G63C C94G U130G | -4.71
G60U C114A G127C | -2.37
U116G G120C | -0.715
A6U A16U | -1.42
G44A G48U U125G | -2.23
C73U C114A | -1.19
G10A G61A A91C C123U | 0.979
C82A C99U G122A | -3.36
U106G G117U | -4.18
G44C A46U G58A G63U G117A U130G | -6.42

Variant | polymerase ribozyme fitness (log ratio)
U21A A50C A68G | -6.32
A2C C13A C22A C49G G63C C123U | -5.96
C11A C49G G60A A75U G93U | -3.77
A5C A29U A121G | -0.781
G63A A66U | -2.44
C53G U96C U106A A119G U133A | 1.61
G10A G51A C70U A119G | -4.32
G42U G71A C86U U96A C97A U116G | -6.66
C12U C22U | -3.18
A18C A74U | -4.85
C56A C73U C124U | 1.55
C20U G120U | -1.57
G63A G128A | -2.19
A46U G63U U96G | -2.43
U9A A46G C53G C72U C82A G113U | -1.9
C82A G93C C115U G122A | -3.46
A18U G36A | -3.63
A46C G69C U81C U112G | -4.07
A100C C102U | -5.66
C11G C53G C62A C89A G122U | -3.13
G36A G61U A103C A118U | -6.19
C11A G45U C64A U78A A95C G113U | -7.43
C80U U92C | -2.1
C40A G71U G110C C114A | -6.53

Variant | polymerase ribozyme fitness (log ratio)
A18U C20G | -4.36
A2G C56G C89G A90C | -2.84
C40A A46U | -3.32
C15A G57C | -1.91
G47C G110C | -6.05
C22G G61A C62U C104U G120A | -4.48
G58U C124A | 1.26
C20A U129C | -3.02
G17U U55C | -2.57
C13U A16C C73A A95U G117U C124G | -1.04
C8G G65U | -5.38
A16U C56G G63U C101U | -4.93
C72U C124A | 1.54
G52C C53G A68G G77A U81A C98U | -5.4
G63A U78A A119U | -1.76
G17U G45A G60C | -2.05
U87C G113A U133A | -0.981
A29G G61A C124A | 0.686
A5U A27G G60U | -4.01
C20A U54G C64G G113C | -7.15
G36A G110A | -2.64
G63U C86A | -2.12
C8A C11U A121U | 2.14
C13A G57C C85A | -1.99

Variant | polymerase ribozyme fitness (log ratio)
G39C U112A A121U | 1.84
G44A C64A C76A | -6.8
G17C C20A | -5.15
G47A C72U A83U | -1.18
G10U A16U C72U C79A C114G C123A U130G | -6.07
A46U A84U A95U C102A | -4.22
U33A G57U | -4.65
G61A C98U C114A | -2.26
A5C C53U | -1.88
A105C G120U | -2.25
C34A G44C G60U A121G | -2.34
A16U C49A A121U U129G | -0.0419
A37U C82A G93U | -1.72
G10A C72A | 0.427
G60U C85A C101U | -0.366
C22A G44C U112A | -3.24
A26U A50U | -4.75
G42A U126G | -3.7
C79A G117U G120C | -3.42
A2G C88A A100U C115U | -3.59
C72G C102A A105C | -5.78
G10U U38G C70A C73U C123A U130G | -3.12
U7G C12A G36U G77U | -0.735
